{"source": "paper PMC5440498", "target": "His-MBP-eYFP-PRDM9Cst-ZnF (Mus musculus castaneus (CAST/EiJ, Prdm9 Cst allele)) (UniProt Q96EQ9)", "sequence (Q96EQ9 whole entry)": "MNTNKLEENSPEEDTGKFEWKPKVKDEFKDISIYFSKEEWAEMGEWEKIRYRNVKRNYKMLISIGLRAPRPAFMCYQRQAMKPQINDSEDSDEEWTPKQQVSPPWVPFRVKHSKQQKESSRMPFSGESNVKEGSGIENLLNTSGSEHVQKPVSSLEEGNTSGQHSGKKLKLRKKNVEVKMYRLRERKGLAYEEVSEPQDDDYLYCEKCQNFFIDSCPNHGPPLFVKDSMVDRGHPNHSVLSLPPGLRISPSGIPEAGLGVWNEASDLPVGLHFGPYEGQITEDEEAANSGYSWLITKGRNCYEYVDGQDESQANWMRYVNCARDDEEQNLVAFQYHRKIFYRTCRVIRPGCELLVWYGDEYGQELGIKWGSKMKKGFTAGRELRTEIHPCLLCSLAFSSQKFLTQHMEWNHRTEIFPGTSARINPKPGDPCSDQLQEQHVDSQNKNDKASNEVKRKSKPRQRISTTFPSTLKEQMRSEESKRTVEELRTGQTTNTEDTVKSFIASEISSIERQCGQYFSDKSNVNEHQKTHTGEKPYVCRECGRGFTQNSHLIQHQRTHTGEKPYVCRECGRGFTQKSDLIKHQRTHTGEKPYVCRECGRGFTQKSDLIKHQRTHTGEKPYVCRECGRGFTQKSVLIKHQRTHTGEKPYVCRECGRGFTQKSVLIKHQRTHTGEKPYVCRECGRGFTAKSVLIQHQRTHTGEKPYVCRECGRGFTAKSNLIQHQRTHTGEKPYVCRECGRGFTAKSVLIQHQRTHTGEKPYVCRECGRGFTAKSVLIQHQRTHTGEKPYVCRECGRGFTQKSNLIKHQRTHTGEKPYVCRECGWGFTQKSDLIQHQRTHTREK", "test": "EMSA", "conditions": "2.5 uM protein, 15 nM DNA, 50 ng/ul polydIdC, EMSA (chimeras): 10 mM Tris-HCl pH 7.5, 50 mM KCl, 1 mM DTT, 0.05% NP-40, 50 uM ZnCl2, titration EMSA: low polydIdC plus 0.03% sarcosyl …"}
{"sequence": "GTGGGAGGAGATGGTGGGTGAATAGTGTGCAGACTTGGACCCTGCCCTTTCTTTACGCATTCCACTAACCATGGG (double strand) [Hlx1 B6 75 bp (hot)]", "values": [{"measurement": "binding signal", "result": 100, "unit": "% bound"}]}
